Patent US5792641

Key:
[1] = target: Variant II: V240P+Q241P (Humicola insolens)
[2] = target: Humicola insolens 43 kD endoglucanase (Humicola insolens)
[3] = target: Variant I: V221S+N222S+Q223T (Humicola insolens)

Residual Activity, % DAA (25° C., 5d) after storage in liquid detergent with Savinase protease [1]: 81% | Residual Activity, % DAA (25° C., 5d) after storage in liquid detergent with Savinase protease [2]: 63% | Residual Activity, % DAA (25° C., 5d) after storage in liquid detergent with Savinase protease [3]: 83%
Substance: Savinase® protease (from UniProt P29600) (enzyme)
